The chains are these.
B1: Calypso^43–404 (wild type), as in the Calypso^43–404–ASX^207–340 complex [Drosophila melanogaster] / itself (parent)
chain: ADGWLELESDPGLFTLLLKDFGCHDVQVEEVYDLQKPIESPYGFIFLFRWIEERRARRKIVETTAEIFVKDEEAISSIFFAQQVVPNSCATHALLSVLLNCNENNLQLGDTLSRLKTHTKGMSPENKGLAIGNTPELACAHNSHAMPQARRRLERTGAGVSSCRFTGEAFHFVSFVPINGQLFELDGLKPYPMNHGGWEDSEDWTDKFRRVMAERLGIATGEQDIRFNLMAVVPDRRIAITHKLKMLRTNQAIVSGTLQKLLKADEQGESGNGDSQRPDTPTTLLEPSAFTARDLQSLLKNLDTEIAINEQHLADENDRRHMFKVDASRRTHNYDKFICTFLSMLAHQGVLGELVSQHLLPS

Variants of B1 are the subject of this assay. In words: SEC-MALLS (Calypso–Calypso dimerisation within the Calypso–ASX complex). As to conditions: with itself; 50 μM; 20 mM HEPES pH 7.5 and 100 mM NaCl; read off a plot.
Turning to chain 1 M246R, the screen value was 77 kDa.

Source of the values: paper PMC6158172, “A bidentate Polycomb Repressive-Deubiquitinase complex is required for efficient activity on nucleosomes” (Nature Communications, 2018).
